Data published in the nanobody polyreactivity screen of Harvey et al. (2022).

Experiment: yeast display, Sf9 membrane polyspecificity reagent, FACS + sequencing; frameworks hold sequencing errors
In short: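 After 36–48 hours of galactose induction, yeast (Saccharomyces cerevisiae BJ5465) displaying a synthetic nanobody library were stained at 4 °C for 1 hour with 10% biotinylated, detergent-solubilized Sf9 membrane reagent. Streptavidin microbeads enriched the stained cells before FACS sorting into low and high (top ~1%) gates on anti-HA and streptavidin fluorescence. Each clone's polyreactivity label reflects its gate of origin.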

Sequence | polyreactivity (PSR sort gate)
QEQLVESGGGLVQAGGSLRLICPASGSIFNIYAMPWSRQAPGKERELVATITGIADSTYYADSVKGRFTISRDNAMNTVYLQMNSLKPEDTAVYYCAAEKYVAEYDYWGHGTQVTVSS | low polyreactivity
QVQLVESGGGLVQAGGSLRLSCAASGRTFQTYAMGWYRQAPGTERELVAAISSDGSTYYADSVKGRFTISRDNATNTVYFQMHSLKPEDTAVYYRNTAIGDKYDYHVRVDYEYWGQGTQVTLSS | low polyreactivity
QVQLVESGGGLVQAGGSLRLSCAASGRTFGVYAMGWYRQAPGKERELVATIRRGGSTYYADSVKGRFTISRDNAKNTVYLQMNSLKPEDTAVYYCNASHVTWNRKYDYWGQGTQVTVSS | low polyreactivity
QVQLVESGGGLVQAGGSLRLSCAASARTFKPYAMGWYRQAPGKERELVAAISTRGGSTYYADSVKGRFTISRDNAKNTVYLQMNSLKPEDTAVYYCAATQPCRDYDYWGQGTQVTVSS | low polyreactivity
QVQLVESGGGLVQAGGSLRLSCAASGSIFEVYAMGWYRQAPGKERELVAAINYTGGSTYYADSVKGRFTISRDNAKNTVYLQMNSLKPEDTAVYYCARDTSGIGTRYDYWGQGTQVTVSS | low polyreactivity
QVQLVESGGGLVQAGGSLRLSCAASGSIFPWNAMGWYRKAHGKARELVAVISQNGGRTYYADSVKGSFTISRDKAKNTVYLQMNSLKPEDTAVYYCAARPRLPRQIGGDGHLDDYWGQGTQVTVSS | high polyreactivity
QVQLVESGGGLVQAGGSLRLSCAASGRTLLPNAMGWYRPAPGKERELVADISTSDGSTRYADSVKGRFTISRDNAKNTVYLQMNSLKPEDTAVYYCAAGSEYYSYGGVRFSFYYWGQGTQVTVSS | low polyreactivity
QVQLVESGGGLVQAGGSLRLSCAASGRTFQEYAMGWYRQAPGKERELVADISDGGSTNYADSVKGRFTISRDNAKNTVYLQMYRLKPEDTAVYYCAADQYHGVGINFRSDYDYWGQGTQVTVSS | low polyreactivity
QVQLVESGGGLVQAGGSLRLSCAASGGTFTDYAMGWYRQAPGKERELVAAISSVGSTNYADSVKGRFTITRDNAQNTVYLQMNSLNPEDTAVYYCAADVYRYWISEYDDYWGQGTQVNVSS | low polyreactivity
QLQLVESGRGLVQAGVSLRLSCAASGFIFEDYAMGCYRTAPGNDRELVAAISRRGGSTYYADSVKGRFTISRYNAKKTVYLQMNSLKPEDTAVYYCAAYYPYSGKGGYDYWGQGTQVTVSS | high polyreactivity
QVQLVESGGGIVQAGGSLRLSCATSGRIFDNNPKGRYRQAPGKESEMVAAIDWRGGTTDYADSVKGRFTISRDNAKNTVYFQMKSLKPEDTAVYYSNARGLNYYGRTFNYWGQGTQVTVSS | low polyreactivity
QVQLVESGGGLDQAGGSLRLSCAASGSTFESNAMGWYRQAPGKERELVAAISWRVGSTYYADSVKGRFTISRDNAKNTDYLQMHSLKPEDTAVYYCASKGWYSHYGGYDYWGQGTQVTVSS | low polyreactivity
QVQLVESGGGLVQAGGSLRLSCAASGLTLETNAMGWYRQAPGKERELVAGITYSGGTTYYADSVKGRFTISRDNAKNTVYLQMNSLKPEDTAVYYCAAHTRTSGHNYWGQGTQVTVSS | low polyreactivity
QVQLVESGGGLVQAGGSLRLSCAASGSTFWENSMGWYRQAPGKERELVAAISWGGGSTYYADSVKGRFTISRDNAKNTVYLQMNSLKPEDTAGYYCAADQTSPQFLTSYGGYNYWGQGTQVTVSS | low polyreactivity
QVQLVESGGGLVQAGGSLRLRCAASGSTFNRYAMGWYRQAPWKERELVAAINWRGGRTYYADSVKGRFTISRDNAKNTVYLQMNSLKPEDTAVYYCNADVTSLTRVHGRFIVSDDDYWGQGTQVTVSS | low polyreactivity
QVQLGESGGGLLQAGGSLRLSCAASGRSFSVNFMGWYRQAPGKDTELVAAIDTSGGSTYYADSVKGRFTISRDNAKNTVYLQMNCLNPEHTAVYVCASGFYGYRSSCYWGQGTQVTVSS | low polyreactivity
QVQLVESGGGLVQAGGSLRLSCAASGNIFSFYAMGWNRPAPGKERELVAAINWSGGDTYYADSVKGRFTISRDNAKNTVYLQMNSLKPEDTAVYYCAAEYYYQYYPGGYDYWGQGTQVTVSS | high polyreactivity
QVQLVESGGGLVQAGGSLRLSCAASGFIFGTNAMGWYRQAPGKERELVAAITSRGGSTYYADSVKGRFTISRDNAKNTVYLQMNSLKPEDTAVYYCAADKPRSYYYWGQGTQVTVSS | high polyreactivity
QVQLVESGGGLVQAGGSLRLSCAASGIIFRVYTMGWYRQAPGKERELVAGISSGDSTSYADSVKGRFTISRDNAKNTVYLQMNSLKPEDTEVYYCNADGKAGGDYDYWGQGTQVTVSS | low polyreactivity
QVHLVESGGGLVQAGRSLRLSCAASGRIFSRYAMGGSRQAPGKERELVAVISRSGADTYYADSVKGRFTISRDNAKTTVYLQMNSLKPEDSAVYSCNAYSARRPHPMGYDYWGQCTQVTVSS | high polyreactivity
QVQLVESGGGLVQAGGSLRLSCAASGSTFVTYAMGWYRQAPGKERELVAAISYSGGSTYADSVKGRFTISRDNAKNTVYLQMNSLKPEDTAVYYCNSDTSVDVRFDYWGQGTQVTVSS | low polyreactivity
QVQLVESGGGLVQAGGSLRLSCAASGRTFGRYAMGWYRQAPGKERELVAVISWSDGGTNYADSVKGRFTISRDNAKNTVYLQMNSLKPEDTAVYYCNAELSFRYPVFRELDYWGQGTQVTVSS | low polyreactivity

Sequence | polyreactivity (PSR sort gate)
QVQLVESGGGLVQAGGSLRLSCAASGSTFEQYAMGGYRQAPGKEKELDAAISGSGTRTYYADSVKGRFTISRDNAKNTVYLQMNSLKAEDTAVYYCAARFSYPAILQAYYHWGQGTQVTVSS | high polyreactivity
QVQLVESGGGLVHAGGSLRLSCAASGRIFQVYAMGWYRQAPGKERELVAAISARGGSTYYADSVKGRFTISRDNAKNTVYLQMNSLKPEDTAVYYCAARSAYGTQRLYYWGQGTQVTVSS | high polyreactivity
QVQLVESGGGLVQAGGSLLLSCAASGFTLEKNAMGWYRTAPGKERELVADISSTDSTNYADSVKGRFTISRDNAKITVYFQMNSVKPEDTAVYYCGRYDGPGTEEFDYWGQGSQVTVSS | low polyreactivity
QVQLVESGGGLVQAGGSLRLSCAASGTIFVNNAMGWYRQAPGKERELVAAIRRSGGNTYYADSVKGRFTISRDNAKNTVYLQMNSLKPEDTAVYYCNVVRRADSIRAKSRDYWGQGTQVTVSS | high polyreactivity
QVQLVETGGGLVQAGGSLRLSCAASGSTFESYAMGWYRQAPGKERELVASISRCGGTTFYADSVKVRFTISRDNAKNTVYLQMNSLKPEDTEVYYCAAKRRRLGGDYWGQGTQVTVSS | high polyreactivity
QVQLVESVGGLVQAGGSLRLSCAASGSTFHRNTMGWDRQAPGKERELVAGISLRGVRTYYADSVKGRFTISRDKAKNTVYLQMNSLKPEDTAVYYCAAGCPYTRNFKLGYWGQGTQVTVSS | high polyreactivity
QVQLVDSGGGLGQAVGILRLSCAASGNIFLYYAMGWYRQAPGKEREMVAAISWSGSSTYYADSVKGRFTISRYNAKNTVYLQMNSLKPEVTAVYYCNATTSSKDAFCFILVFGQGDYWGQGTQVSVSS | low polyreactivity
QVQLVESGGGLVQAGGSLRLSCAASGFTFDFYAMGWYRPAPGKERELVAAISRSGGRTYYADSVKGRFTISRDNAKNTVYLQMNSLKPEDTAVYYCNTGFFYYNFRYYYWGQGTQVTVSS | low polyreactivity
QVQLVESGGGLVQAGGSLRLSCAASGSIFPYYAMGWYRQAPGKETELVAVINSGGITNYADSVKGRFTISRDNAKNTVYLQMNSLKPEDTAVYYCAAAASPLTRHLYWGQGTQVTVSS | low polyreactivity
QVQLVESGGGLVQAGGSLRLSCAASGFIFIYNAMGWFRQAPGKERELVAAISRTGARTYYADSVKGRFTISRDNAKNTVYLQMNSLKPEDTAVYYCAGGVRTRTEEYDYWGQGTKVTVSS | high polyreactivity
QVQLVESGGGLVQAGGSLRLSCAASGLTFPQYAMGWYRQAPGKERELVAAISKTGGSTYYADSVKGRFTISRDNAKNTVYLQMNSLKPEDTAVYYCAAVESGDRGQRINYWGQGTQVTVAS | high polyreactivity
QVQLVESGGGLVQAGGSLRLSCAASGRIFPVNAMGWYRQAPGKEREFVARISRRGGSTYYADSVKGRFTISRDNAKNTVYLQMNSLKPEDTAVYYCAAVSSRYSYDYWGQGTQVTVSS | high polyreactivity
QVQLVESGGGLVQAGGSLRLSCAASGRTFGIYAMGWYRQAPGKERELVASISWSGGRTYYADSVKGRFTLSRDNAKNTVYLQMNSLKPEDTAVYYCAAYGVYYPRSWQYFDWYGYWGQGTQVTVSS | high polyreactivity
QVQLVESGGGLVQAGGSLRLSCAASGFIFRHYAMGWYRPAPGKERELVAAITSGGTTYYADSVKGRFTISRDNAKNTVYLQMNSLKPEDTAVYYCNTVYYRPGQDVDYWGQGTQVTVSS | high polyreactivity
QVQLVESGGGLVQAGGSLRLSCAASGSILWLNAMGWYRQAPGKERELVADITRGGSTYYADSVKGRFTISRDNAKNTVYLQMNSLKPEDTAVYYCAAKRGKTYQRFDYWGQGTQVTVSS | high polyreactivity
QVQLVESGGGLVQAGGSLRLSCAASGSTFVWYVMGWYRQAPGKEREFVAAISTSGGRTYYADSVKGRFTISRDNAKNTGYLQMNSLKPEDTAVYYCATRPYFTYRWYDYWGQGTQVTVSS | high polyreactivity
QVQLVESGGGLVQAGGSLRLSSASTGLIFRWYEMGRYRQPPGKETELVAAISRRGGTTNYADSVKGRFTISRDIAKITVYLQMNSLKPEDTAVYYCAADYQSVGVAEYEYWGQGTQVTVSS | high polyreactivity
QVQLVESGGGLVQAGGSHRLSCAASGIIFRFYAMGCYRQAPGTERELVAAITSSGGSTYYADSVKGRFTISRDNAKNTVYLQMNSLNPEDTAVYYCYARVFSQSHYYYWGQGTQVTLSS | high polyreactivity
QVQLVESGGGLVQAGCSLRLSCDASGFIFKVYAMGWYRQAPGKERELVASISFSGGRTYYADSVKGRFTISRDNAKNTFYLQMNSLKPEDSAVYYCNRSYVNKYYSWGQGTQVTVSS | high polyreactivity
QVQLVESGGGLVQAGGSLRLSCAASGITFTSNTMGWYRKAPGKERELVAAISKSGGSTYYADSVKGRFTISRDNAKNTVYLQMNSLKPEDTAVYYCAKDSYYYRRDVTVDYWGQGTQVTVSS | low polyreactivity
QVQLVESGGGLVQAGGSLRLSCAASGAMGCYRQAPGKERELVAGITSGGSTNYADSEKGRFTISRDNAKNTVYLQMNSLKPEDTAVYYCNAVGGPRWFSVGWPYDYWGQGTQVTVSS | low polyreactivity
